Test results as given in patent US20080219974A1.

Target: human V158 FcγRIIIa (human) (UniProt P08637)
Experiment: not described in this filing

Chain of human V158 FcγRIIIa (human) (P08637 17-208 F176V limits assumed): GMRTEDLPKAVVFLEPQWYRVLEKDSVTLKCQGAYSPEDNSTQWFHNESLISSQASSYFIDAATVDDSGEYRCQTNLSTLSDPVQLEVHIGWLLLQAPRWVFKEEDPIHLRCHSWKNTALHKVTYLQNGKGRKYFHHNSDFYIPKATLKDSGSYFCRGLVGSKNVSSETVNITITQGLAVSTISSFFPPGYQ

Substance: human WT IgG1 (antibody)
- Kd: 240 nM
